Measurements published in patent US7067474B1, “Agents for treating human illnesses based on β-catenin, and the production and use thereof” (Max-Delbruck-Centrum fur Molekulare Medizin, priority 1998, dated 2006).
Where a chain is given by its changes, count along the chain named.

Assays:
Experiment in all cases: yeast 2-hybrid; - means 60-100% of the wild type interaction
[1] = target: T1, human β-catenin (Leu218-Leu781) mutant Lys 435 to alanine, Gal-4 activation domain fusion (human, UniProt P35222 218-781)
T1 sequence: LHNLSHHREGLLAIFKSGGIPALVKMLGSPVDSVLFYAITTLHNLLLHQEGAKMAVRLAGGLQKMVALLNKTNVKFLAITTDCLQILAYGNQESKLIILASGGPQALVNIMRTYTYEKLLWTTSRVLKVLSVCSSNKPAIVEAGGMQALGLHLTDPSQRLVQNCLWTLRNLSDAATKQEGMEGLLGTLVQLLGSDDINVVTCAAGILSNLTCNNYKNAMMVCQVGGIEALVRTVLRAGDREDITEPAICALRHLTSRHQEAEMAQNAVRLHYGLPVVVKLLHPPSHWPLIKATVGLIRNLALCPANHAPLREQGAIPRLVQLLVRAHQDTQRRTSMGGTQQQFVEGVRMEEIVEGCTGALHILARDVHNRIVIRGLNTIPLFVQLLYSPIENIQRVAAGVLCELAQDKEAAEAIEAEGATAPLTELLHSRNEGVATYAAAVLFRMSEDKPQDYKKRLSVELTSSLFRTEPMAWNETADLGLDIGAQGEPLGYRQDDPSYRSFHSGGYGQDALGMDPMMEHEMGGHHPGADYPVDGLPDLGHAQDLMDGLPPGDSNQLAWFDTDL
Procedure: (§1) 4. Preparation and testing of mutants of β-catenin modulating the interaction with LEF-1, APC, conductin or E-cadherin The mutagenesis of β-catenin in the armadillo repeats 3–8 was carried out by means of the "mutagenesis kit" of the company Clontech according to the producer's record and the mutants were checked by sequencing (FIG. 5). In all mutants the original amino acid was substituted by alanine. For analyzing the interactions the cDNA of human β-catenin (armadillo repeat 3 up to the C-terminal end of the protein) coding for the amino acids Leu218–Leu7 µl or its mutants was cloned into the fusion vector for the activation domain of Gal-4 (pGAD424, Clontech). The cDNA for the binding domains of the interaction partners was cloned into the Lex-A fusion vector BTM 116. To this end, the cDNA of LEF-1 for the amino acids 1–99, conductin for the amino acids Ala342–ARG465; of human APC for the amino acids His1012–Glu1215 (APC 15 amino acid repeats) and for the amino acids Ser1259Asp 1400 (APC 20 amino acid repeats) and E-cadherin for the amino acids Gin773–Asp884 (cytoplasmatic domain) were amplified with the respective primers PCR. The interaction of the Lex-A hybrids with β-catenin and its mutants was quantified by means of the β-galactosidase reporter activity in the yeast 2-hybrid system (report: "Matchmaker". Clontech) (Tab. 2 and FIG. 6).

[2] = target: T2, human β-catenin (Leu218-Leu781) mutant Lys 394 to alanine, Gal-4 activation domain fusion (human, UniProt P35222 218-781)
T2 sequence: T1 sequence with K177A, A218K
Procedure: as §1

[3] = target: T3, human β-catenin (Leu218-Leu781) mutant Arg 342 to alanine, Gal-4 activation domain fusion (human, UniProt P35222 218-781)
T3 sequence: T1 sequence with R125A, A218K
Procedure: as §1

Measured: binding result

B1: LEF-1 amino acids 1-99 fused to Lex-A (vector BTM 116) (other, UniProt P0A7C2 1-202, looked up)
chain: MKALTARQQEVFDLIRDHISQTGMPPTRAEIAQRLGFRSPNAAEEHLKALARKGVIEIVSGASRGIRLLQEEEEGLPLVGRVAAGEPLLAQQHIEGHYQVDPSLFKPNADFLLRVSGMSMKDIGIMDGDLLAVHKTQDVRNGQVVVARIDDEVTVKRLKKQGNKVELLPENSEFKPIVVDLRQQSFTIEGLAVGVIRNGDWLMPQLSGGGGGGDPELCATDEMIPFKDEGDPQKEKIFAEISHPEEEGDLADIKSSLVNESEIIPASNGHEVVRQAPSSQEPYHDKAREHPDEGKHPDGGL
notes: Order of the fusion follows the vector; also called LEF-1/TCF-4
binds: all assays above
